What was measured:
Lsr2BD WT = Lsr2BD WT (Mycobacterium tuberculosis H37Rv, UniProt P9WIP7 66-112); assay: fluorescence anisotropy; details: protein: recombinant; tags: 6xHis; blunt
Lsr2BD T112D = Lsr2BD T112D (Mycobacterium tuberculosis H37Rv, UniProt P9WIP7 66-112, T112D); assay: fluorescence anisotropy; details: protein: recombinant, blunt
Lsr2 = Lsr2 (Mycobacterium tuberculosis H37Rv, UniProt P9WIP7 1-112); assay: EMSA; 0.95-7.6 uM Lsr2; details: protein: recombinant; (pET15-TEV, Ni-NTA); chain copies: 2; blunt
Lsr2BD T112A = Lsr2BD T112A (Mycobacterium tuberculosis H37Rv, UniProt P9WIP7 66-112, T112A); assay: fluorescence anisotropy; pH 7.5; 4 nM DNA; details: protein: recombinant; label: 5' Alexa Fluor 488; blunt

B1: GC-rich fragment (leuS MUT sequence), anisotropy (dsDNA)
DNA 1: AACTCGGCGAGGTCGGTCAG
DNA 2: CTGACCGACCTCGCCGAGTT
Q: Does B1 bind (Lsr2BD WT)?
A: Result: no binding

Q: Does B1 bind (Lsr2BD T112D)?
A: Result: no binding

B2: leuS MUT (dsDNA)
DNA 1: AACTCGGCGAGGTCGGTCAG
DNA 2: CTGACCGACCTCGCCGAGTT
Q: Does B2 bind (Lsr2)?
A: Result: binds

B3: AT-rich 14-mer (dsDNA)
DNA 1: CGCGCATATATGCG
DNA 2: CGCATATATGCGCG
Q: Does B3 bind (Lsr2BD T112D; label: 5' Alexa Fluor 488)?
A: Result: no binding

Q: What about the Kd (Lsr2BD T112A) of the same binder?
A: The Kd was 20 ± 8 nM.

From PMC6906086
